Measured values: patent US20200317768A1 (published 2020)
Where a chain is given by its changes, count along the chain named. Names and notes keep the numbering of the source.

T1: human FcγRIIaR extracellular domain, C-terminal His-tag (human, UniProt P12318 34-217)
T1 construct: also called human FcγRIIa (type R); FcgRIIaR
T1 chain: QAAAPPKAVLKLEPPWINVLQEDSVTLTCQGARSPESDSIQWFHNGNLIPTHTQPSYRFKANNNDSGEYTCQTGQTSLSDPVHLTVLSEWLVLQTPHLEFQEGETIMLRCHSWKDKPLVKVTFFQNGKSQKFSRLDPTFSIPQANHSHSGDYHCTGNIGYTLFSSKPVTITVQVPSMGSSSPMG

T2: cynomolgus monkey FcγRIIb extracellular domain, C-terminal His-tag (cynomolgus monkey)
T2 construct: also called cyno FcγRIIb; cynoFcγRIIb
T2 chain: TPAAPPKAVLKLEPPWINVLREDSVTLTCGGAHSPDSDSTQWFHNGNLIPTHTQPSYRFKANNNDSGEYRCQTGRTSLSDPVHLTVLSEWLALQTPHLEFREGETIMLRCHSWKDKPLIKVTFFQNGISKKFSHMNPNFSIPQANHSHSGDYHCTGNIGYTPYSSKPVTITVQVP

T3: cynomolgus monkey FcγRIIIaS extracellular domain, C-terminal His-tag (cynomolgus monkey, UniProt Q8SPW2 21-206 at identity 1.00))
T3 construct: also called cyno FcγRIIIaS; FcgRIIIaS
T3 chain: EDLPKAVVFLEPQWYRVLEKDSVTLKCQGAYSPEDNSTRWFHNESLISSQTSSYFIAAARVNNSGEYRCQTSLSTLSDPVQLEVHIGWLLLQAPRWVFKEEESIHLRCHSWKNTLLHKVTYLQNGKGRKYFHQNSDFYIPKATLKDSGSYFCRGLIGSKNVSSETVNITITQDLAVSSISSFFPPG

T4: cynomolgus monkey FcγRIIa3 extracellular domain with C-terminal His-tag (cynomolgus monkey)
T4 construct: also called cyno FcgRIIa3; cynoFcγRIIa3
T4 chain: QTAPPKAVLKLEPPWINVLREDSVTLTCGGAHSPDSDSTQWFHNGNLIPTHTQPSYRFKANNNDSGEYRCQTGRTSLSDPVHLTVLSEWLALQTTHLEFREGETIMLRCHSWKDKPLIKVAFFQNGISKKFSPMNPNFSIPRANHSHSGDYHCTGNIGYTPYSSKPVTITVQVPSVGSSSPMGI

T5: cynomolgus monkey FcγRIIIaS extracellular domain with C-terminal His-tag (cynomolgus monkey, UniProt Q8SPW2 21-206 at identity 1.00))
T5 construct: also called cyno FcgRIIIaS; cynoFcγRIIIaS
T5 chain: T3 chain

T6: human FcγRIIb extracellular domain with C-terminal His-tag (human, UniProt P31994 43-217)
T6 construct: also called human FcgRIIb
T6 sequence: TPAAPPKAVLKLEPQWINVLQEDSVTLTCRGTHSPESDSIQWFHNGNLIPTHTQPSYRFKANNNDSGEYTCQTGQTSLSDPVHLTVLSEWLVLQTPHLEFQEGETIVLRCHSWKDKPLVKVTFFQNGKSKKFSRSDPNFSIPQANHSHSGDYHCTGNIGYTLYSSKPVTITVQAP

T7: cynomolgus monkey FcγRIIb extracellular domain with C-terminal His-tag (cynomolgus monkey)
T7 construct: also called cyno FcgRIIb; cynoFcγRIIb
T7 chain: T2 chain

T8: human FcγRIIaH extracellular domain with C-terminal His-tag (human, UniProt P12318 34-217)
T8 construct: also called human FcgRIIaH; FcγRIIa (type H)
T8 sequence: T1 chain with R134H

B1: MS_M103205H795-SG1/M103202L889-SK1 (antibody, human IgG1, kappa)
heavy: not shown
light: DIVMTQSPATLSLSPGERATLSCTSSQSVYHANWLSWFQQKPGQPPKLLIYWASTLAYGVPSRFSGSGSGTDFTLTISSLQPEDAATYYCAGGYGGGRYAFGQGTKVEIKRTVAAPSVFIFPPSDEQLKSGTASVVCLLNNFYPREAKVQWKVDNALQSGNSQESVTEQDSKDSTYSLSSTLTLSKADYEKHKVYACEVTHQGLSSPVTKSFNRGEC
notes: also called MS1032LO06-SG1
B2: MS_M103205H795-SG1/M103202L889-SK1 (antibody, human IgG1, kappa)
heavy: not shown
light: B1 light
notes: Parent antibody of the Fc variants; also called MS1032LO06-SG1
B3: M103205H795-MY009/M103202L889-SK1 (antibody, human IgG1, kappa)
heavy: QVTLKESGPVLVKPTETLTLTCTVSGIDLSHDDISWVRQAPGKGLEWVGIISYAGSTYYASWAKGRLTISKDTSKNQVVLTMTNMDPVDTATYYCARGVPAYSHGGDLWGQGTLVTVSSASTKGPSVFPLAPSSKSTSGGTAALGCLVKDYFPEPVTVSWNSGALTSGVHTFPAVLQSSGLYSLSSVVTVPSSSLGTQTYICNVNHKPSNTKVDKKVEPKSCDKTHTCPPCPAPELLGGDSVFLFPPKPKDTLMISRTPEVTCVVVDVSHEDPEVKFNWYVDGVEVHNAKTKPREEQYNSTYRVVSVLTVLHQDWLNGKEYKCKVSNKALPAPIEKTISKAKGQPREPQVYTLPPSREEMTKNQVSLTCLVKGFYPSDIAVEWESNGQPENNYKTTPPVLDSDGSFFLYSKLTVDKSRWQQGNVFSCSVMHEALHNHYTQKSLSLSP
light: B1 light
notes: CH MY009 = SG1 with P238D (EU numbering); also called MS1032LO06-MY009

Experiments:
[1] = target: T1, human FcγRIIaR extracellular domain, …; test: SPR; KD of SG1 / KD of variant
Protocol: (§1) The kinetic analysis of interactions between these antibodies and FcγR was carried out using BIACORE® T200 or BIACORE® 4000 (GE Healthcare). HBS-EP+ (GE Healthcare) was used as the running buffer, and the measurement temperature was set to 25° C. A chip produced by immobilizing Protein A. Protein A/G or mouse anti-human IgG kappa light chain (BD Biosciences) onto a Series S Sensor Chip CM4 or CM5 (GE Healthcare) by the amine-coupling method was used. […] After the measurement, the antibody captured on the chip was washed off by allowing reaction with 10 mM glycine-HCl, pH1.5 and 25 mM NaOH so that the chip was regenerated and used repeatedly. The sensorgrams obtained as measurement results were analyzed by the 1:1 Langmuir binding model using the BIACORE® Evaluation Software to calculate the binding rate constant ka (L/mol/s) and dissociation rate constant kd (l/s), and the dissociation constant KD (mol/L) was calculated from these values. […] Regarding such interactions, KD values were calculated using the following 1:1 binding model described in BIACORE® T100 Software Handbook BR1006-48 Edition AE.

[2] = target: T2, cynomolgus monkey FcγRIIb extracellular …; test: SPR; KD of SG1 / KD of variant
Protocol: as §1

[3] = target: T3, cynomolgus monkey FcγRIIIaS …; test: SPR; KD of SG1 / KD of variant
Protocol: as §1

[4] = target: T4, cynomolgus monkey FcγRIIa3 …; test: SPR (BIACORE); KD of SG1 / KD of variant
Protocol: as §1
(§2) The behavior of interacting molecules according to the 1:1 binding model on BIACORE® can be described by Equation 1: Req=C·R max/(KD+C)+RI, wherein, Req is a plot of steady-state binding levels to analyte concentration. C is concentration, RI is bulk refractive index contribution in the sample, and Rmax is analyte binding capacity of the surface. When this equation is rearranged, KD can be expressed as Equation 2: KD=C·Rmax/(Req−RI)−C. KD can be calculated by substituting the values of Rmax, RI, and C into Equation 1 or Equation 2. From the current measurement conditions, RI=0, C=2 μmol/L can be used.

[5] = target: T9, human FcγRIIIaV extracellular domain with C-terminal His-tag (human, UniProt P08637 17-208); test: SPR (BIACORE); KD of SG1 / KD of variant
T9 construct: also called human FcgRIIIaV
Protocol: as §1, §2

[6] = target: T5, cynomolgus monkey FcγRIIIaS …; test: SPR (BIACORE); KD of SG1 / KD of variant
Protocol: as §1, §2

[7] = target: T6, human FcγRIIb extracellular domain with …; test: SPR (BIACORE); KD of SG1 / KD of variant
Protocol: as §1, §2

[8] = target: T7, cynomolgus monkey FcγRIIb extracellular …; test: SPR (BIACORE); KD of SG1 / KD of variant
Protocol: as §1, §2

[9] = target: T8, human FcγRIIaH extracellular domain …; test: SPR (BIACORE); KD of SG1 / KD of variant
Protocol: as §1, §2
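Note: relative to parent M103205H795-SG1 carrying the SG1 human heavy chain constant region.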

T9 sequence (P08637 17-208 F176V): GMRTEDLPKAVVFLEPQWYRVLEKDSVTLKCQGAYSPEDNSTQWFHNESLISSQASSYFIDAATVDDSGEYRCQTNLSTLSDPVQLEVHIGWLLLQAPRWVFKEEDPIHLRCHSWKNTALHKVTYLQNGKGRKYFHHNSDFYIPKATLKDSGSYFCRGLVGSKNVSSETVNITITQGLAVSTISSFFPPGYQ

Row | Binder | KD fold (SG1 = 1) [1] [fold] | KD fold (SG1 = 1) [2] [fold] | KD fold (SG1 = 1) [3] [fold] | KD fold (SG1 = 1) [4] [fold] | KD fold (SG1 = 1) [5] [fold] | KD fold (SG1 = 1) [6] [fold] | KD fold (SG1 = 1) [7] [fold] | KD fold (SG1 = 1) [8] [fold] | KD fold (SG1 = 1) [9] [fold]
1 | B1 | 1 | 1 | 1 | – | – | – | – | – | –
2 | B2 | – | – | – | 1 | 1 | 1 | 1 | 1 | 1
3 | B3 | 0.1 | 0.4 | 0.004 | – | – | – | – | – | –
